In patent US7604990 one finds GCTM2 expression (ELISA-based assay; hES cells treated 2 weeks in serum-free medium with S1P plus PDGF-AB) (% more GCTM2+ than the controls) and GCTM2 expression (ELISA-based assay; hES cells treated 2 weeks in serum-free medium with S1P plus PDGF-AA) data, which are given here for two substances.

Assay [1] concerns the target PDGFR-α (human) (UniProt P16234). In words: cell-based or functional assay.
Assay [2] has as its target PDGFR-β (human) (UniProt P09619). In words: cell-based or functional assay.

Sequence of PDGFR-α (human) (P16234 24-1089): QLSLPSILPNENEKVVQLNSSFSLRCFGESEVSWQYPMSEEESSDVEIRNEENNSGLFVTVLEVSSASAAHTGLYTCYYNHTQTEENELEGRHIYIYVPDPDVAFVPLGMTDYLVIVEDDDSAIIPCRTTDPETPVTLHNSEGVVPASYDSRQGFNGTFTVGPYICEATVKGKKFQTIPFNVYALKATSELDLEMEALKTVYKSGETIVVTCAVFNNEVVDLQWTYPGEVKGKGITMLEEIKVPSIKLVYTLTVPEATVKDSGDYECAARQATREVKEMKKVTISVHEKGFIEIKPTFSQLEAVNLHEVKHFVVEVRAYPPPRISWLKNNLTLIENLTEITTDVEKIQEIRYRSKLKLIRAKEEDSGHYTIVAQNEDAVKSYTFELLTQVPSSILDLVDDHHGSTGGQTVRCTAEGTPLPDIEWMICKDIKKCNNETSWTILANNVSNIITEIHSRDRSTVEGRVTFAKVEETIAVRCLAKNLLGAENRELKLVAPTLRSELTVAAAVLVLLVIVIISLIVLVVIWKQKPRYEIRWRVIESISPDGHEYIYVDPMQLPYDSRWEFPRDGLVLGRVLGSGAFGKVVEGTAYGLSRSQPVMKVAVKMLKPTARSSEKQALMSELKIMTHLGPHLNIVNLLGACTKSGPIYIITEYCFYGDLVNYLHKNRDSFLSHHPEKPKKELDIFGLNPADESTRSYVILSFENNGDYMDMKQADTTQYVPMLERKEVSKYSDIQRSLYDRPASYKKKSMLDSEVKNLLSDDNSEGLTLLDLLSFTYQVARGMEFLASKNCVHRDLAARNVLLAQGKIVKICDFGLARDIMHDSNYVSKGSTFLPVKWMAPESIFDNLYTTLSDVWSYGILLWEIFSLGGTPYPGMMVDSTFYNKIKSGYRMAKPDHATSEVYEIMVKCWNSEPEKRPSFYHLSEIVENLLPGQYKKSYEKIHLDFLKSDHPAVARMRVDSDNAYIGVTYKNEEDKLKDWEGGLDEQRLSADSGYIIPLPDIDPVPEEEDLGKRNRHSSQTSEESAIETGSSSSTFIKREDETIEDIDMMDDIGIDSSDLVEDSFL
Sequence of PDGFR-β (human) (P09619 33-1106): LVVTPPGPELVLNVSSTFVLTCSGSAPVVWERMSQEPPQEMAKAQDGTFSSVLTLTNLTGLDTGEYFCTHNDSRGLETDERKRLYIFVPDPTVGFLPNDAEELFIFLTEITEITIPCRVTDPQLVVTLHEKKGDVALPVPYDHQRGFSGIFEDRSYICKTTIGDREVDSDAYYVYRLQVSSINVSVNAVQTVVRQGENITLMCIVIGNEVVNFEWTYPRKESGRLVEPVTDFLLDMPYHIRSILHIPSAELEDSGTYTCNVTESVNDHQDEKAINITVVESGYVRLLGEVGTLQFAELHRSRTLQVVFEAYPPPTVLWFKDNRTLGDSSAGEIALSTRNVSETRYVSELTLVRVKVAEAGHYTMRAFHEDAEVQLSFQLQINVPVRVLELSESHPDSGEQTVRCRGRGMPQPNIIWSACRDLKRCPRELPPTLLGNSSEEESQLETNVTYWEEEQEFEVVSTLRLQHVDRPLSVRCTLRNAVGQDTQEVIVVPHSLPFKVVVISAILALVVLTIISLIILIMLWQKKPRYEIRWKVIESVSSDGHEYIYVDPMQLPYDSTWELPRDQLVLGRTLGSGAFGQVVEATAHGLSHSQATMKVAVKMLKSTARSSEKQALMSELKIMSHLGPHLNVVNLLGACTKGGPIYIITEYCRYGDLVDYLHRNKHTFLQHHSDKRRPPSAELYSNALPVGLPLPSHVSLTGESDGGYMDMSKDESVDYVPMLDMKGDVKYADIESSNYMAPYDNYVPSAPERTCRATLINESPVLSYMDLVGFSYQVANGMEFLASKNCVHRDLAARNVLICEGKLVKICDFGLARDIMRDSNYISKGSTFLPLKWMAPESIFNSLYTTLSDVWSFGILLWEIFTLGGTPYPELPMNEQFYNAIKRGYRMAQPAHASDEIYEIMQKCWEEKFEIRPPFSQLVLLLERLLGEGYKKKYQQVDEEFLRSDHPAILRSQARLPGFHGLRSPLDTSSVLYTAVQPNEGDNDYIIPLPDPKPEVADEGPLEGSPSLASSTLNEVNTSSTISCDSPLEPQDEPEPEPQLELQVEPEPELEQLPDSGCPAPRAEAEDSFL

With “Human PDGF-AB (from UniProt P04085 87-211; P01127 82-190) (ligand)”, the GCTM2 expression (ELISA-based assay; hES cells treated 2 weeks in serum-free medium with S1P plus PDGF-AB) (% more GCTM2+ than the controls) in assay [1] and in assay [2] was 153 in each case. “Human PDGF-AA (from UniProt P04085 87-211) (ligand)”: the GCTM2 expression (ELISA-based assay; hES cells treated 2 weeks in serum-free medium with S1P plus PDGF-AA) in assay [1] is 220 % of control.
